Laboratory results reported in patent publication US20230374148A1, “BINDING MOLECULES THAT MULTIMERISE CD45” (UCB BIOPHARMA SRL, priority 2020, published 2023).
Where two headings read alike, the source gives them in different places.

T1: human CD45 on cells (PBMC, whole blood cells, macrophages, leukaemia and lymphoma cell lines) (human, UniProt P08575 26-1306)
T1 sequence: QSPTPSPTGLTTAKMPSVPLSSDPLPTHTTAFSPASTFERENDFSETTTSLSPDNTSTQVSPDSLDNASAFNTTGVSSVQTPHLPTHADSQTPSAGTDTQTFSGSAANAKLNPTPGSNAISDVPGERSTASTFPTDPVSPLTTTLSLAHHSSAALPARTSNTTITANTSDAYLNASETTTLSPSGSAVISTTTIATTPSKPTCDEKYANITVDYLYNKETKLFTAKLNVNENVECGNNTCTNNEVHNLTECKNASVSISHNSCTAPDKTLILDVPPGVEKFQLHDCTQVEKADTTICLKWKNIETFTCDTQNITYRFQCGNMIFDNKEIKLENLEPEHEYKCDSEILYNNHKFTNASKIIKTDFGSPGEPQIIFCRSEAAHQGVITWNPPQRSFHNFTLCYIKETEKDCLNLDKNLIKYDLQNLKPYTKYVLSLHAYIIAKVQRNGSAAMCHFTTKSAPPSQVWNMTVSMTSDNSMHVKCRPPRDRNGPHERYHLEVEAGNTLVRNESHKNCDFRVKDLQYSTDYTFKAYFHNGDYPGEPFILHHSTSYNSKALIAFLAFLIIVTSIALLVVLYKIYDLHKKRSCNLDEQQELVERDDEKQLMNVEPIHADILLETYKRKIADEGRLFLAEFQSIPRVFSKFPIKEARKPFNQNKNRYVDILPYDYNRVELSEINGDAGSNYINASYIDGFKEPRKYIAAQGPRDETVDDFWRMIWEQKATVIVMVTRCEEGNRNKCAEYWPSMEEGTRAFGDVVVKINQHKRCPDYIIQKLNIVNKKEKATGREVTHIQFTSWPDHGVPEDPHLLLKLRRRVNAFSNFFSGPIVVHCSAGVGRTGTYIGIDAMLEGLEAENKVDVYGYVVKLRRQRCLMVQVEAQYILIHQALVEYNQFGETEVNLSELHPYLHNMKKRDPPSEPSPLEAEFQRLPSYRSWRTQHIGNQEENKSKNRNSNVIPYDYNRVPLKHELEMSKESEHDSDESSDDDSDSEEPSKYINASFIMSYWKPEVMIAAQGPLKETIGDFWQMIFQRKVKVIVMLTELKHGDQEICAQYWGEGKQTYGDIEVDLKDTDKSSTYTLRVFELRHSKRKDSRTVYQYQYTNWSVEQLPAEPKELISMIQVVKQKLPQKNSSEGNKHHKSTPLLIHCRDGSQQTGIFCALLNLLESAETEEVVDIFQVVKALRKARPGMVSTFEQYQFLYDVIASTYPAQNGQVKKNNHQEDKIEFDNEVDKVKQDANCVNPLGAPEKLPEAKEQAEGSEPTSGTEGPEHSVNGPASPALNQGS

T2: CD45 D1-D4 (Homo sapiens, UniProt P08575)
T2 construct: extracellular domain of CD45 (UniProtKB—P08575, residue positions 225-573); TEV cleavage site (C); 10-His tag (C); made in house; host or cells: HEK293
T2 sequence (P08575 225-573): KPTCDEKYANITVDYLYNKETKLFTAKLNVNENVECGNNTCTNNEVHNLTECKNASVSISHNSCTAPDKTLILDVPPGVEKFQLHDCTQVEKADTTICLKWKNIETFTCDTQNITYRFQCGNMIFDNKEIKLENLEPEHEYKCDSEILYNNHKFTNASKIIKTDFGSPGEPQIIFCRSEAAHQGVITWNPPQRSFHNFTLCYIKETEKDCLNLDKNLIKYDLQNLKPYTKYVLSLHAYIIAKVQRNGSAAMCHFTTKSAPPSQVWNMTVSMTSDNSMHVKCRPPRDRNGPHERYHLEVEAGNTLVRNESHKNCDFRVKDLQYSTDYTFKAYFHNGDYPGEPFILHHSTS

B1: 4133-6294 IgG4P FALA Knob-in-Hole (bispecific antibody)
heavy 1: QEQLVESGGGLVQPEGSLTLTCTASGFSFSGNYYMCWVRQAPGKGLEWIGCLYTGSSGSTYYASWAKGRFTISKTSSTTVTLQMTSLTAADTATYFCARDLGYEIDGYGGLWGQGTLVTVSSASTKGPSVFPLAPCSRSTSESTAALGCLVKDYFPEPVTVSWNSGALTSGVHTFPAVLQSSGLYSLSSVVTVPSSSLGTKTYTCNVDHKPSNTKVDKRVESKYGPPCPPCPSAPEAAGGPSVFLFPPKPKDTLMISRTPEVTCVVVDVSQEDPEVQFNWYVDGVEVHNAKTKPREEQFNSTYRVVSVLTVLHQDWLNGKEYKCKVSNKGLPSSIEKTISKAKTGQPREPQVYTLPPSQEEMTKNQVSLWCLVKGFYPSDIAVEWESNGQPENNYKTTPPVLDSDGSFFLYSRLTVDKSRWQEGNVFSCSVMHEALHNHYTQKSLSLSLGK
heavy 2: EVQLVESGAELARPGASVKMSCKASGYTFTSYTMHWVKQRPGQGLEWIGYINPSSGYTEYNQKFKDKTTLTADKSSSTAYLQLSSLTSEDSAVYYCARVGDGFYPSWLAYWGQGTLVTVSSASTKGPSVFPLAPCSRSTSESTAALGCLVKDYFPEPVTVSWNSGALTSGVHTFPAVLQSSGLYSLSSVVTVPSSSLGTKTYTCNVDHKPSNTKVDKRVESKYGPPCPPCPAPEAAGGPSVFLFPPKPKDTLMISRTPEVTCVVVDVSQEDPEVQFNWYVDGVEVHNAKTKPREEQFNSTYRVVSVLTVLHQDWLNGKEYKCKVSNKGLPSSIEKTISKAKGQPREPQVYTLPPSQEEMTKNQVSLSCAVKGFYPSDIAVEWESNGQPENNYKTTPPVLDSDGSFFLVSRLTVDKSRWQEGNVFSCSVMHEALHNHYTQKSLSLSLGK
light 1: AQVLTQTPSPVSAVVGGTVSISCQASQSVYNNNNLSWYQQKPGQPPKLLIYDASKLASGVPSRFKGSGSGTQFTLTISGVQCDDAATYYCLGGYYSSGWYFAFGGGTKVVVKRTVAAPSVFIFPPSDEQLKSGTASVVCLLNNFYPREAKVQWKVDNALQSGNSQESVTEQDSKDSTYSLSSTLTLSKADYEKHKVYACEVTHQGLSSPVTKSFNRGEC
light 2: DIQMTQSPKFLLVSAGDRVTITCKASQSVRNDVAWYQQKPGQSPKLLIFYASKRYTGVPDRFTGSGYGTDFTFTISTVQAEDLAVYFCQQDYSSPTTFGGGTKLEIKRTVAAPSVFIFPPSDEQLKSGTASVVCLLNNFYPREAKVQWKVDNALQSGNSQESVTEQDSKDSTYSLSSTLTLSKADYEKHKVYACEVTHQGLSSPVTKSFNRGEC
B2: 4133 Fab: Fab fragment of rabbit anti-CD45 antibody 4133 (antibody)
heavy: QEQLVESGGGLVQPEGSLTLTCTASGFSFSGNYYMCWVRQAPGKGLEWIGCLYTGSSGSTYYASWAKGRFTISKTSSTTVTLQMTSLTAADTATYFCARDLGYEIDGYGGLWGQGTLVTVSSGQPKAPSVFPLAPCCGDTPSSTVTLGCLVKGYLPEPVTVTWNSGTLTNGVRTFPSVRQSSGLYSLSSVVSVTSSSQPVTCNVAHPATNTKVDKTVAPSTCSKP
light: AQVLTQTPSPVSAVVGGTVSISCQASQSVYNNNNLSWYQQKPGQPPKLLIYDASKLASGVPSRFKGSGSGTQFTLTISGVQCDDAATYYCLGGYYSSGWYFAFGGGTKVVVKRTPVAPTVLIFPPAADQVATGTVTIVCVANKYFPDVTVTWEVDGTTQTTGIENSKTPQNSADCTYNLSSTLTLTSTQYNSHKEYTCKVTQGTTSVVQSFNRGDC
B3: 6294 Fab: Fab fragment of mouse anti-CD45 antibody 6294 (antibody, V domains shown)
VH: EVQLVESGAELARPGASVKMSCKASGYTFTSYTMHWVKQRPGQGLEWIGYINPSSGYTEYNQKFKDKTTLTADKSSSTAYLQLSSLTSEDSAVYYCARVGDGFYPSWLAYWGQGTLVTVSS
VL: DIQMTQSPKFLLVSAGDRVTITCKASQSVRNDVAWYQQKPGQSPKLLIFYASKRYTGVPDRFTGSGYGTDFTFTISTVQAEDLAVYFCQQDYSSPTTFGGGTKLEIK

What was measured:
[1] = target: T1, human CD45 on cells (PBMC, whole blood …); assay: cell-based or functional assay
CD45 D1-D4 = target: T2, CD45 D1-D4; assay: Surface plasmon resonance (Biacore) affinity of Fabs; format: binding; settings: 25° C.; for Ka: association constant, CD45 D1-D4 50 nM to 0.05 nM
Method: Surface plasmon resonance (SPR) experiments were carried out at 25° C. on a Biacore 3000 system using CM5 sensor chips (GE Healthcare Bio-Sciences AB, Uppsala, Sweden) and HBS-EP running buffer (10 mM HEPES, 150 mM NaCl, EDTA 2 mM and 0.005% (v/v) P20, pH 7.4). 4133 rabbit Fab and 6294 mouse Fab were captured using polyclonal goat F(ab)2 fragment anti-rabbit F(ab)2, (Jackson Labs product code #111-006-047) and polyclonal goat F(ab)2 fragment anti-mouse F(ab)2, (Jackson Labs product code #115-006-072), respectively. Covalent immobilization of the capturing antibody was achieved by standard amine coupling chemistry to a level of 1000-3000 response units (RU).
CD45 D1-D4 was titrated over the captured purified antibody from 50 nM to 0.05 nM. Each assay cycle consisted of first capturing the antibody Fab fragment using a 1-min injection at a flow rate of 10 μl/min, followed by an association phase consisting of a 3-min injection of CD45 D1-D4 at a flow rate of 30 μl/min. The subsequent dissociation phase was monitored for at least 3 min. After each cycle, the capture surface was regenerated at a flow rate of 10 μl/min with a 1-min injection of 40 mM HCl followed by a 30-sec injection of 5 mM NaOH. A blank flow-cell was used for reference subtraction and buffer-blank injections were included to subtract instrument noise and drift. Kinetic parameters were determined using BIAevaluation software (version 4.1.1).

Molecule | EC50 of reduction of lymphocytes in PBMC, 24 h (UCB Cone-802) [1] [nM] | EC50 of reduction of lymphocytes in PBMC, 24 h (UCB Cone-811) [1] [nM] | Kd (CD45 D1-D4; SPR, read-out: affinity) [nM] | Kd (CD45 D1-D4; affinity constant, captured Fab, read-out: KD) [nM] | Ka (CD45 D1-D4; captured Fab) [M⁻¹ s⁻¹] | Dissociation rate constant koff (CD45 D1-D4; captured Fab) [s⁻¹]
B1 | 0.09 | 0.17 |  |  |  | 
B2 |  |  | 61 | 61 | 570000 | 0.035
B3 |  |  | 0.085 |  | 2.6e+06 | 0.00022
